Measurements taken from patent US20220324996A1 (published 2022).

Assays:
human SIRP-α v1 = target: T1, human SIRP-α v1 (human, UniProt P78324 31-149); experiment: SPR
T1 construct: Soluble SIRP analyte in SPR; also called hSIRPa v1; Human V1
Experimental: The interactions of anti-SIRPα antibodies with SIRPα from various species (human v1, human v2, cynomolgus, mouse 129, BL6, BALBc, NOD), SIRPβ and SIRPγ were analyzed using two methods, direct immobilization of the antibodies (via GLC chip) or capture via biotinylated Protein A (via NLC chip), according to the following protocols. All experiments were performed at 25° C. using a SPR-based ProteOn XPR36 biosensor (BioRad. Inc, Hercules, Calif.) equipped with GLC or NLC sensor chips. […] Purification was carried out by standard Protein A affinity column chromatography and eluted antibodies were stored in PBS buffer.

human SIRP-γ = target: T2, human SIRP-γ (human, UniProt Q9P1W8 29-147); experiment: SPR
T2 construct: Soluble SIRP analyte in SPR; also called hSIRPg; SIRPg
T2 sequence (Q9P1W8 29-147 limits assumed): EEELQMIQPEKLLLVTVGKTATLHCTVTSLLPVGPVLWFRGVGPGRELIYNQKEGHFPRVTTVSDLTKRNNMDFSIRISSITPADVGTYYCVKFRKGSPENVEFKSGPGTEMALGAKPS

T1 sequence (P78324 31-149 limits assumed): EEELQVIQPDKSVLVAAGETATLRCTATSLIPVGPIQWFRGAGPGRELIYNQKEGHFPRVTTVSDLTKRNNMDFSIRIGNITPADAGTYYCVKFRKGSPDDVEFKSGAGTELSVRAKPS

B1: Hum1/AB21_HC_Mutall (antibody, V domains shown)
VH: EVQLVESGGGVVQPGGSLRLSCAASGFTFSSNAMSWVRQAPGKGLEWVAGISAGGSDTYYPASVKGRFTISRDNSKNTLYLQMNSLRAEDTAVYYCARETWNHLFDYWGQGTLVTVSS
VL: SYELTQPPSVSVSPGQTARITCSGGSYSSYYYAWYQQKPGQAPVTLIYSDDKRPSNIPERFSGSSSGTTVTLTISGVQAEDEADYYCGGYDQSSYTNPFGGGTKLTVL
notes: also called Hum1/AB21mutall
Kd (human SIRP-α v1): ≤ 10 pM
Kd (human SIRP-γ): > 1 pM
